Assay results as given in paper PMC12416549 (2024).

T1: TNFR1 (Homo sapiens, UniProt P19438)
T1 chain: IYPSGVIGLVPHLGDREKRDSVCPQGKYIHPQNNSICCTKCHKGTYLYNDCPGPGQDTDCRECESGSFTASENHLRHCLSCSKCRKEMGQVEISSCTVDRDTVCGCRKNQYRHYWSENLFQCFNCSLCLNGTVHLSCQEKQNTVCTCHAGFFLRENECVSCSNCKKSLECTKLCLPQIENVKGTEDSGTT


Target: T1, TNFR1
Assay: yeast display SC50

Binder	apparent Kd (screen) [nM]
R61S (designed binder) MTLQELLREEALRRAEAEAFRYALELLAEKFPEQKEYLLDLAEEIESQIRSLSGVDVEDVSKFLDKEWAWVKELLAEHPAELAEVEAARAARLAELRAEVEAKVAA	0.79
P79W (designed binder) MTLQELLREEALRRAEAEAFRYALELLAEKFPEQKEYLLDLAEEIESQIRSLSGVDVEDVRKFLDKEWAWVKELLAEHWAELAEVEAARAARLAELRAEVEAKVAA	0.49
S51E (designed binder) MTLQELLREEALRRAEAEAFRYALELLAEKFPEQKEYLLDLAEEIESQIRELSGVDVEDVRKFLDKEWAWVKELLAEHPAELAEVEAARAARLAELRAEVEAKVAA	2.05
P79E (designed binder) MTLQELLREEALRRAEAEAFRYALELLAEKFPEQKEYLLDLAEEIESQIRSLSGVDVEDVRKFLDKEWAWVKELLAEHEAELAEVEAARAARLAELRAEVEAKVAA	0.446
A83N (designed binder) MTLQELLREEALRRAEAEAFRYALELLAEKFPEQKEYLLDLAEEIESQIRSLSGVDVEDVRKFLDKEWAWVKELLAEHPAELNEVEAARAARLAELRAEVEAKVAA	0.653
L24T (designed binder) MTLQELLREEALRRAEAEAFRYATELLAEKFPEQKEYLLDLAEEIESQIRSLSGVDVEDVRKFLDKEWAWVKELLAEHPAELAEVEAARAARLAELRAEVEAKVAA	0.446
L74K (designed binder) MTLQELLREEALRRAEAEAFRYALELLAEKFPEQKEYLLDLAEEIESQIRSLSGVDVEDVRKFLDKEWAWVKEKLAEHPAELAEVEAARAARLAELRAEVEAKVAA	13.8
V60D (designed binder) MTLQELLREEALRRAEAEAFRYALELLAEKFPEQKEYLLDLAEEIESQIRSLSGVDVEDDRKFLDKEWAWVKELLAEHPAELAEVEAARAARLAELRAEVEAKVAA	1.05
A83R (designed binder) MTLQELLREEALRRAEAEAFRYALELLAEKFPEQKEYLLDLAEEIESQIRSLSGVDVEDVRKFLDKEWAWVKELLAEHPAELREVEAARAARLAELRAEVEAKVAA	0.49
P79F (designed binder) MTLQELLREEALRRAEAEAFRYALELLAEKFPEQKEYLLDLAEEIESQIRSLSGVDVEDVRKFLDKEWAWVKELLAEHFAELAEVEAARAARLAELRAEVEAKVAA	0.653
L6D (designed binder) MTLQEDLREEALRRAEAEAFRYALELLAEKFPEQKEYLLDLAEEIESQIRSLSGVDVEDVRKFLDKEWAWVKELLAEHPAELAEVEAARAARLAELRAEVEAKVAA	1.27
A69V (designed binder) MTLQELLREEALRRAEAEAFRYALELLAEKFPEQKEYLLDLAEEIESQIRSLSGVDVEDVRKFLDKEWVWVKELLAEHPAELAEVEAARAARLAELRAEVEAKVAA	0.653
L38E (designed binder) MTLQELLREEALRRAEAEAFRYALELLAEKFPEQKEYELDLAEEIESQIRSLSGVDVEDVRKFLDKEWAWVKELLAEHPAELAEVEAARAARLAELRAEVEAKVAA	10.4
A94D (designed binder) MTLQELLREEALRRAEAEAFRYALELLAEKFPEQKEYLLDLAEEIESQIRSLSGVDVEDVRKFLDKEWAWVKELLAEHPAELAEVEAARAARLDELRAEVEAKVAA	0.593
L41P (designed binder) MTLQELLREEALRRAEAEAFRYALELLAEKFPEQKEYLLDPAEEIESQIRSLSGVDVEDVRKFLDKEWAWVKELLAEHPAELAEVEAARAARLAELRAEVEAKVAA	1.27
A19H (designed binder) MTLQELLREEALRRAEAEHFRYALELLAEKFPEQKEYLLDLAEEIESQIRSLSGVDVEDVRKFLDKEWAWVKELLAEHPAELAEVEAARAARLAELRAEVEAKVAA	0.718
A106Q (designed binder) MTLQELLREEALRRAEAEAFRYALELLAEKFPEQKEYLLDLAEEIESQIRSLSGVDVEDVRKFLDKEWAWVKELLAEHPAELAEVEAARAARLAELRAEVEAKVAQ	0.142
R50Q (designed binder) MTLQELLREEALRRAEAEAFRYALELLAEKFPEQKEYLLDLAEEIESQIQSLSGVDVEDVRKFLDKEWAWVKELLAEHPAELAEVEAARAARLAELRAEVEAKVAA	0.49

Binder	apparent Kd (screen) [nM]
K72L (designed binder) MTLQELLREEALRRAEAEAFRYALELLAEKFPEQKEYLLDLAEEIESQIRSLSGVDVEDVRKFLDKEWAWVLELLAEHPAELAEVEAARAARLAELRAEVEAKVAA	0.79
L39V (designed binder) MTLQELLREEALRRAEAEAFRYALELLAEKFPEQKEYLVDLAEEIESQIRSLSGVDVEDVRKFLDKEWAWVKELLAEHPAELAEVEAARAARLAELRAEVEAKVAA	0.653
L96N (designed binder) MTLQELLREEALRRAEAEAFRYALELLAEKFPEQKEYLLDLAEEIESQIRSLSGVDVEDVRKFLDKEWAWVKELLAEHPAELAEVEAARAARLAENRAEVEAKVAA	0.446
A19W (designed binder) MTLQELLREEALRRAEAEWFRYALELLAEKFPEQKEYLLDLAEEIESQIRSLSGVDVEDVRKFLDKEWAWVKELLAEHPAELAEVEAARAARLAELRAEVEAKVAA	9.41
L7K (designed binder) MTLQELKREEALRRAEAEAFRYALELLAEKFPEQKEYLLDLAEEIESQIRSLSGVDVEDVRKFLDKEWAWVKELLAEHPAELAEVEAARAARLAELRAEVEAKVAA	16.7
D40I (designed binder) MTLQELLREEALRRAEAEAFRYALELLAEKFPEQKEYLLILAEEIESQIRSLSGVDVEDVRKFLDKEWAWVKELLAEHPAELAEVEAARAARLAELRAEVEAKVAA	13.8
A98I (designed binder) MTLQELLREEALRRAEAEAFRYALELLAEKFPEQKEYLLDLAEEIESQIRSLSGVDVEDVRKFLDKEWAWVKELLAEHPAELAEVEAARAARLAELRIEVEAKVAA	0.653
A42N (designed binder) MTLQELLREEALRRAEAEAFRYALELLAEKFPEQKEYLLDLNEEIESQIRSLSGVDVEDVRKFLDKEWAWVKELLAEHPAELAEVEAARAARLAELRAEVEAKVAA	0.869
E10R (designed binder) MTLQELLRERALRRAEAEAFRYALELLAEKFPEQKEYLLDLAEEIESQIRSLSGVDVEDVRKFLDKEWAWVKELLAEHPAELAEVEAARAARLAELRAEVEAKVAA	10.4
Y37Q (designed binder) MTLQELLREEALRRAEAEAFRYALELLAEKFPEQKEQLLDLAEEIESQIRSLSGVDVEDVRKFLDKEWAWVKELLAEHPAELAEVEAARAARLAELRAEVEAKVAA	8.56
I45K (designed binder) MTLQELLREEALRRAEAEAFRYALELLAEKFPEQKEYLLDLAEEKESQIRSLSGVDVEDVRKFLDKEWAWVKELLAEHPAELAEVEAARAARLAELRAEVEAKVAA	3.99
E25L (designed binder) MTLQELLREEALRRAEAEAFRYALLLLAEKFPEQKEYLLDLAEEIESQIRSLSGVDVEDVRKFLDKEWAWVKELLAEHPAELAEVEAARAARLAELRAEVEAKVAA	0.539
L64I (designed binder) MTLQELLREEALRRAEAEAFRYALELLAEKFPEQKEYLLDLAEEIESQIRSLSGVDVEDVRKFIDKEWAWVKELLAEHPAELAEVEAARAARLAELRAEVEAKVAA	1.16
D56E (designed binder) MTLQELLREEALRRAEAEAFRYALELLAEKFPEQKEYLLDLAEEIESQIRSLSGVEVEDVRKFLDKEWAWVKELLAEHPAELAEVEAARAARLAELRAEVEAKVAA	0.593
V57Q (designed binder) MTLQELLREEALRRAEAEAFRYALELLAEKFPEQKEYLLDLAEEIESQIRSLSGVDQEDVRKFLDKEWAWVKELLAEHPAELAEVEAARAARLAELRAEVEAKVAA	0.869
A42K (designed binder) MTLQELLREEALRRAEAEAFRYALELLAEKFPEQKEYLLDLKEEIESQIRSLSGVDVEDVRKFLDKEWAWVKELLAEHPAELAEVEAARAARLAELRAEVEAKVAA	3.99
A28W (designed binder) MTLQELLREEALRRAEAEAFRYALELLWEKFPEQKEYLLDLAEEIESQIRSLSGVDVEDVRKFLDKEWAWVKELLAEHPAELAEVEAARAARLAELRAEVEAKVAA	10.4
